From US20250236644A1, “De Novo Designed Stimulus-responsive Two-state Hinge Proteins” (University of Washington, priority 2024, published 2025)

Test system: TAMRA-cs221B
Test: FP titration and kinetics, hinge vs TAMRA-cs221B
Type: binding
Settings: for peptide binding: FP; for kon: Effector TAMRA-cs221B, method FP
Method: All FP measurements were performed at 25° C. in 96-well plates (Corning 3686) using a Synergy Neo2™ plate reader and a 530/590 nm filter cube. The buffer for all FP measurements was 20 mM Tris-HCl, 100 mM NaCl, 0.05% v/v TWEEN20 at pH 8. Titrations were carried out in 96-well format, with 4 replicates per plate and 24 data points per titration (23 steps of two-fold serial dilution of hinges in the presence of TAMRA-labeled peptide at a constant concentration between 0.1 nM and 1 nM) with a final sample volume of 80 μl per well. Titration plates were incubated overnight at room temperature before measuring to ensure complete equilibration. The polarization signal S (as calculated by the Neo2™ software) was fitted to the equation
where fAB is the fraction of peptide that is bound, Atot is the absolute hinge concentration, Btot is the absolute peptide concentration, S0 is the baseline polarization of free peptide, and S1 is the change in polarization upon complex formation.
Fitting was performed using the scipy.optimize.curve_fit python function (53). Uncertainties for KD values are standard deviation errors calculated from the covariance matrix of the fits. In cases where the fitted KD was lower than the concentration of the labeled peptide Btot, we report the KD as KD<Btot.
For FP kinetics experiments a 2× peptide solution and 8 different 2× hinge solutions at different concentrations were prepared separately. 40 μl of each hinge solution were mixed with 40 μl peptide solution using a multichannel pipet and the measurement was started immediately after mixing. Polarization signals S at each concentration were fitted individually to the equation
where S0 is the amplitude, S1 is the polarization at equilibrium, kapp is the apparent rate constant, t is the time after start of the measurement, and t0 is the dead time between mixing and start of the measurement. For each hinge-peptide pair, the apparent rate constants for 8 different concentrations are fitted to the equation
where koff and kon are observed off- and on rates and Atot is the absolute hinge concentration.

TAMRA-cs221B, sequence (as listed by the source): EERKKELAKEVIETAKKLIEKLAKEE

Molecule	peptide binding (oxidizing conditions (disulfide formed))	peptide binding (upon addition of reducing agent DTT)	kon [M⁻¹ s⁻¹]
cs221_lockedX: cs221 variant with disulfide that locks state X, SEQ ID NO:19 (protein) MSGEMKEEIRRLAEELRERTKDEEVRELAREAARLAEESDDEEVKEVVKKALEAALKSKDEEVIRLLLLAAVCAAAAARSGSPEEKLEIAKKALELAMKSKDEEVIRLALLAAVLACRSDDEEVLKKVKEALEKAMESKDVEEIRERLREAVEVARAGSGSHHWGSTHHHHHH	only weak residual binding	fully restored	–
cs221_V111L_A111T: state Y-stabilizing double mutant of hinge cs221 (protein) MSGEMKEEIRRLAEELRERTKDEEVRELAREAARLAEESDDEEVKEVVKKALEAALKSKDEEVIRLLLLAAVLAAAAARSGSPEEKLEIAKKALELAMKSKDEEVIRLALLAALLATRSDDEEVLKKVKEALEKAMESKDVEEIRERLREAVEVARAGSGSHHWGSTHHHHHH	–	–	76200
cs221_V111L: hinge cs221 with point mutation V111L (protein) MSGEMKEEIRRLAEELRERTKDEEVRELAREAARLAEESDDEEVKEVVKKALEAALKSKDEEVIRLLLLAAVLAAAAARSGSPEEKLEIAKKALELAMKSKDEEVIRLALLAALLAARSDDEEVLKKVKEALEKAMESKDVEEIRERLREAVEVARAGSGSHHWGSTHHHHHH	–	–	24300
cs221_A114T: hinge cs221 with point mutation A114T (protein) MSGEMKEEIRRLAEELRERTKDEEVRELAREAARLAEESDDEEVKEVVKKALEAALKSKDEEVIRLLLLAAVLAAAAARSGSPEEKLEIAKKALELAMKSKDEEVIRLALLAAVLATRSDDEEVLKKVKEALEKAMESKDVEEIRERLREAVEVARAGSGSHHWGSTHHHHHH	–	–	27700
cs221: designed hinge protein, SEQ ID NO:10 (protein) MSGEMKEEIRRLAEELRERTKDEEVRELAREAARLAEESDDEEVKEVVKKALEAALKSKDEEVIRLLLLAAVLAAAAARSGSPEEKLEIAKKALELAMKSKDEEVIRLALLAAVLAARSDDEEVLKKVKEALEKAMESKDVEEIRERLREAVEVARAGSGSHHWGSTHHHHHH	–	–	3400
cs221_L66T: hinge cs221 with point mutation L66T (protein) MSGEMKEEIRRLAEELRERTKDEEVRELAREAARLAEESDDEEVKEVVKKALEAALKSKDEEVIRLLLTAAVLAAAAARSGSPEEKLEIAKKALELAMKSKDEEVIRLALLAAVLAARSDDEEVLKKVKEALEKAMESKDVEEIRERLREAVEVARAGSGSHHWGSTHHHHHH	–	–	2700
cs221_lockedY: cs221 variant with disulfide that locks state Y, SEQ ID NO:20 (protein) MSGEMKEEIRRLAEELRERTKDEEVRELAREAARLAEESDDEEVKEVVKKALEAALKSKDEEVIRLLLCAAVLAAAAARSGSPEEKLEIAKKALELAMKSKDEEVIRLACLAAVLAARSDDEEVLKKVKEALEKAMESKDVEEIRERLREAVEVARAGSGSHHWGSTHHHHHH	–	–	790000
cs221_A73E: hinge cs221 with point mutation A73E (protein) MSGEMKEEIRRLAEELRERTKDEEVRELAREAARLAEESDDEEVKEVVKKALEAALKSKDEEVIRLLLLAAVLAAEAARSGSPEEKLEIAKKALELAMKSKDEEVIRLALLAAVLAARSDDEEVLKKVKEALEKAMESKDVEEIRERLREAVEVARAGSGSHHWGSTHHHHHH	–	–	1900
